Reference: publication PMC3660597, “Investigation of Specificity Determinants in Bacterial tRNA-Guanine Transglycosylase Reveals Queuine, the Substrate of Its Eucaryotic Counterpart, as Inhibitor” (PLoS ONE, 2013)

Tests used:
[1] = substrate: NCc1c[nH]c2nc(N)[nH]c(=O)c12; test: [3H]-preQ1 incorporation into tRNA(Tyr), scintillation counting; assay type: biochemical, Zymomonas mobilis; settings: 15 µM E. coli tRNA(Tyr), 200 mM HEPES pH 7.3, 20 mM MgCl2, 37°C, labelled compound
Description: [3H]-preQ1 incorporation into tRNA(Tyr), scintillation counting on Z. mobilis Tgt ("wild type" Tgt = Tgt(Tyr106Phe))

[2] = substrate: Nc1nc2nc[nH]c2c(=O)[nH]1; test: purified protein; assay type: biochemical, Zymomonas mobilis; settings: 15 µM E. coli tRNA(Tyr), 200 mM HEPES pH 7.3, 20 mM MgCl2, 37°C, labelled compound

Protein	Km [1] [µM]	kcat [1] [s⁻¹]	Km [2] [µM]	kcat [2] [s⁻¹]
Z. mobilis Tgt ("wild type" Tgt = Tgt(Tyr106Phe)) (Zymomonas mobilis subsp. mobilis ZM4 = ATCC 31821; V233G/Y106F) (protein, recombinant from pET9d-ZM-Y106F in E. coli BL21(DE3)/pLysS, purified; homodimer; all variants including "wild type" carry Tyr106Phe) VEATAQETDRPRFSFSIAAREGKARTGTIEMKRGVIRTPAFMPVGTAATVKALKPETVRATGADIILGNTYHLMLRPGAERIAKLGGLHSFMGWDRPILTDSGGFQVMSLSSLTKQSEEGVTFKSHLDGSRHMLSPERSIEIQHLLGSDIVMAFDECTPYPATPSRAASSMERSMRWAKRSRDAFDSRKEQAENAALFGIQQGSVFENLRQQSADALAEIGFDGYAVGGLAGGEGQDEMFRVLDFSVPMLPDDKPHYLMGVGKPDDIVGAVERGIDMFDCVLPTRSGRNGQAFTWDGPINIRNARFSEDLTPLDSECHCAVCQKWSRAYIHHLIRAGEILGAMLMTEHNIAFYQQLMQKIRDSISEGRFSQFAQDFRARYFARNS	0.6 ± 0.1	0.0063 ± 0.0002	1.0 ± 0.2	0.0046 ± 0.0003
Z. mobilis Tgt ("wild type" Tgt = Tgt(Tyr106Phe)) (Zymomonas mobilis subsp. mobilis ZM4 = ATCC 31821; C158V/V233G/Y106F) (protein, recombinant from pET9d-ZM-Y106F in E. coli BL21(DE3)/pLysS, purified; homodimer; all variants including "wild type" carry Tyr106Phe) VEATAQETDRPRFSFSIAAREGKARTGTIEMKRGVIRTPAFMPVGTAATVKALKPETVRATGADIILGNTYHLMLRPGAERIAKLGGLHSFMGWDRPILTDSGGFQVMSLSSLTKQSEEGVTFKSHLDGSRHMLSPERSIEIQHLLGSDIVMAFDEVTPYPATPSRAASSMERSMRWAKRSRDAFDSRKEQAENAALFGIQQGSVFENLRQQSADALAEIGFDGYAVGGLAGGEGQDEMFRVLDFSVPMLPDDKPHYLMGVGKPDDIVGAVERGIDMFDCVLPTRSGRNGQAFTWDGPINIRNARFSEDLTPLDSECHCAVCQKWSRAYIHHLIRAGEILGAMLMTEHNIAFYQQLMQKIRDSISEGRFSQFAQDFRARYFARNS	13.5 ± 3.1	0.001 ± 0.0003	2.7 ± 0.3	0.0006 ± 0.0001
Z. mobilis Tgt ("wild type" Tgt = Tgt(Tyr106Phe)) (Zymomonas mobilis subsp. mobilis ZM4 = ATCC 31821; Y106F) (protein, recombinant from pET9d-ZM-Y106F in E. coli BL21(DE3)/pLysS, purified; homodimer; all variants including "wild type" carry Tyr106Phe) VEATAQETDRPRFSFSIAAREGKARTGTIEMKRGVIRTPAFMPVGTAATVKALKPETVRATGADIILGNTYHLMLRPGAERIAKLGGLHSFMGWDRPILTDSGGFQVMSLSSLTKQSEEGVTFKSHLDGSRHMLSPERSIEIQHLLGSDIVMAFDECTPYPATPSRAASSMERSMRWAKRSRDAFDSRKEQAENAALFGIQQGSVFENLRQQSADALAEIGFDGYAVGGLAVGEGQDEMFRVLDFSVPMLPDDKPHYLMGVGKPDDIVGAVERGIDMFDCVLPTRSGRNGQAFTWDGPINIRNARFSEDLTPLDSECHCAVCQKWSRAYIHHLIRAGEILGAMLMTEHNIAFYQQLMQKIRDSISEGRFSQFAQDFRARYFARNS	0.9 ± 0.1	0.106 ± 0.0027	1.2 ± 0.2	0.0558 ± 0.0001
Z. mobilis Tgt ("wild type" Tgt = Tgt(Tyr106Phe)) (Zymomonas mobilis subsp. mobilis ZM4 = ATCC 31821; C158V/Y106F) (protein, recombinant from pET9d-ZM-Y106F in E. coli BL21(DE3)/pLysS, purified; homodimer; all variants including "wild type" carry Tyr106Phe) VEATAQETDRPRFSFSIAAREGKARTGTIEMKRGVIRTPAFMPVGTAATVKALKPETVRATGADIILGNTYHLMLRPGAERIAKLGGLHSFMGWDRPILTDSGGFQVMSLSSLTKQSEEGVTFKSHLDGSRHMLSPERSIEIQHLLGSDIVMAFDEVTPYPATPSRAASSMERSMRWAKRSRDAFDSRKEQAENAALFGIQQGSVFENLRQQSADALAEIGFDGYAVGGLAVGEGQDEMFRVLDFSVPMLPDDKPHYLMGVGKPDDIVGAVERGIDMFDCVLPTRSGRNGQAFTWDGPINIRNARFSEDLTPLDSECHCAVCQKWSRAYIHHLIRAGEILGAMLMTEHNIAFYQQLMQKIRDSISEGRFSQFAQDFRARYFARNS	16.0 ± 2.4	0.035 ± 0.0008	1.4 ± 0.2	0.0275 ± 0.0002
